Data taken from patent publication US20150044237A1 (CENTRE NATIONAL DE LA RECHERCHE SCIENTIFIQUE, published 2015).
Where “and” joins values, the source holds several entries; their conditions need not be identical. Equal entries are not always repeated. Where two headings read alike, the source gives them in different places. Blank lines part the entries; values can stand above or below the molecule they belong to.

B1: D1IgD2FasL (ligand, human)
chain: QKKGAPHDLKCVTNNLQVWNCSWKAPSGTGRGTDYEVCIENRSRSCYQLEKTSIKIPALSHGDYEITINSLHDFGSSTSKFTLNEQNVSLIPDTPEILNLSADFSTSTLYLKWNDRGSVFPHRSNVIWEIKVLRKESMELVKLVTHNTTLNGKDTLHHWSWASDMPLECAIHFVEIRCYIDNLHFSGLEEWSDWSPVKNISWIPDSQTKVFPQDKVILVGSDITFCCVSQEKVLSALIGHTNCPLIHLDGENVAIKIRNISVSASSGTNVVFTTEDNIFGTVIFAGYPPDTPQQLNCETHDLKEIICSWNPGRVTALVGPRATSYTLVESFSGKYVRLKRAEAPTNESYQLLFQMLPNQEIYNFTLNAHNPLGRSQSTILVNITEKVYPHTPTSFKVKDINSTAVKLSWHLPGNFAKINFLCEIEIKKSNSVQEQRNVTIKGVENSSYLVALDKLNPYTLYTFRIRCSTETFWKWSKWSNKKQHLTTEASQKELAELRESTSQMHTASSLEKQIGHPSPPPEKKELRKVAHLTGKSNSRSMPLEWEDTYGIVLLSGVKYKKGGLVINETGLYFVYSKVYFRGQSCNNLPLSHKVYMRNSKYPQDLVMMEGKMMSYCTTGQMWARSSYLGAVFNLTSADHLYVNVSELSLVNFEESQTFFGLYKL
B2: D2FasL (ligand, human)
chain: TPQQLNCETHDLKEIICSWNPGRVTALVGPRATSYTLVESFSGKYVRLKRAEAPTNESYQLLFQMLPNQEIYNFTLNAHNPLGRSQSTILVNITEKVYPHTPTSFKVKDINSTAVKLSWHLPGNFAKINFLCEIEIKKSNSVQEQRNVTIKGVENSSYLVALDKLNPYTLYTFRIRCSTETFWKWSKWSNKKQHLTTEASQKELAELRESTSQMHTASSLEKQIGHPSPPPEKKELRKVAHLTGKSNSRSMPLEWEDTYGIVLLSGVKYKKGGLVINETGLYFVYSKVYFRGQSCNNLPLSHKVYMRNSKYPQDLVMMEGKMMSYCTTGQMWARSSYLGAVFNLTSADHLYVNVSELSLVNFEESQTFFGLYKL
notes: domain: D2
B6: Recombinant Fas-Fc (R&Dsystems) (Fc fusion, UniProt P25445 26-173, looked up)
chain: QVTDINSKGLELRKTVTTVETQNLEGLHHDGQFCHKPCPPGERKARDCTVNGDEPDCVPCQEGKEYTDKAHFSSKCRRCRLCDEGHGLEVEINCTRTQNTKCRCKPNFFCNSTVCEHCDPCTKCEHGIIKECTLTSNTKCKEEGSRSN
notes: not shown: Fc part

Experiments:
[1] = target: T1, Fas (CD95/APO-1) on Jurkat cells (human, UniProt P25445 26-335); assay: cell-based or functional assay
T1 sequence (looked up): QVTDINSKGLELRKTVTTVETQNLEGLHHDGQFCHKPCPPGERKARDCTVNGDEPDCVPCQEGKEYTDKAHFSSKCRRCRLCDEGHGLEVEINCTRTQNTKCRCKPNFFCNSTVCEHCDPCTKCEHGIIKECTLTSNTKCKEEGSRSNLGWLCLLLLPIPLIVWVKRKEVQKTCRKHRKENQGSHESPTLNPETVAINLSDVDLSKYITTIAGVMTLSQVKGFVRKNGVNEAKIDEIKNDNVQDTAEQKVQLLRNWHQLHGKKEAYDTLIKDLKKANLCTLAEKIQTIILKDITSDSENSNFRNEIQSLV

HLA-pfFasL (human) = assay: cell-based or functional assay
[2] = target: T1, Fas (CD95/APO-1) on Jurkat cells; assay: cell-based or functional assay; remark: listed apart in the source
[3] = target: B6; assay: SPR (BIAcore 3000), Fas-Fc immobilised on CM5 chip
Experimental: (§1) The experiments were carried out on a BIAcore 3000 optical biosensor (GE healthcare, Chalfont, UK). The FasL chimeras were produced as COS supernatants in Opti-MEM medium, concentrated 100 times, dialyzed against PBS and sterilized by filtration. Recombinant Fas-Fc (R&Dsystems, Minneapolis, Minn.) was covalently coupled to a carboxymethyl dextran flow cell (CM5, BIAcore) following the manufacturer's recommendations. The level of immobilization was 2,000 resonance units (RU). Binding of the FasL chimeras was assayed at concentrations ranging from 0.2 to 100 nM for IgFasL, 0.2 to 44 nM for cFasL, 0.2 to 37.5 nM for D2FasL, and 0.25 to 8 nM for D1IgD2FasL, in Hepes-buffered saline, at a 30 μl/min flow rate. Association was monitored for 5 min before initiating the dissociation phase for another 11 min with Hepes-buffered saline. The flow cell was regenerated with 4M MgCl2. The sensorgrams were analyzed using the BIAeval 4.1 software (BIAcore). The background of the Opti-MEM medium was at 30 RU.
(§2) The affinity of the FasL chimeras for Fas was measured using the surface plasmon resonance Biacore® method, against recombinant Fas-Fc immobilized on a chip. IgFasL, D2FasL, D1IgD2FasL and sFasL as a control, were produced as supernatants in COS cells cultured in serum-free medium, concentrated 100 times, and dialysed against PBS.

[4] = target: B6; assay: SPR (BIAcore), Fas-Fc immobilised on chip, FasL construct as analyte; reference cFasL
Experimental: as §1, §2

[5] = target: T1, Fas (CD95/APO-1) on Jurkat cells; assay: cell-based or functional assay; remark: listed apart in the source
[6] = target: B6; assay: SPR (BIAcore 3000), Fas-Fc immobilised on CM5 chip, FasL construct as analyte
Experimental: as §1, §2

D1IgD2FasL = target: B1; assay: as above
Experimental: as §1, §2

D2FasL = target: B2; assay: as above
Experimental: as §1, §2

cleaved FasL (cFasL) = target: T2, cleaved FasL (cFasL) (human, UniProt P48023 127-281); assay: as above
T2 construct: range 127-281; Supernatant of COS cells transfected with wild-type FasL; also called spontaneously cleaved membrane FasL; metalloprotease-cleaved FasL
T2 sequence (looked up): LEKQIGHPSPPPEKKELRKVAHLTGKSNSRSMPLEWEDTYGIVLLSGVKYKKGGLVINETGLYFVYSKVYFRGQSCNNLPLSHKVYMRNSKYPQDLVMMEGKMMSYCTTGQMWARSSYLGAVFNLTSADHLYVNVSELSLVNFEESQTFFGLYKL
Experimental: as §1, §2

Molecule: Anti-human Fas agonistic mAb 7C11 (IgM) (antibody)
- concentration required to kill 50% of the Jurkat cells [1]: 2 ng/mL

Molecule: Flag-tagged sFasL (sfFasL) (from UniProt P48023 108-281) (ligand)
- cytotoxicity EC50 on the Jurkat cell line (MTT assay) [1]: > 3 µg/mL
- cytotoxicity on Jurkat cells, activity against pfFasL (fold less active than pfFasL) [1]: > 5000

Molecule: anti-Flag mAb (clone M2) (antibody)
- enhancement of the cytotoxicity of HLA-pfFasL on CD32+ L-cells by pre-formed immune complexes (HLA-pfFasL (human)): 2.5 fold

Molecule: anti-β2 microglobulin mAb (clone B2M-01) (antibody)
- enhancement of the cytotoxicity of HLA-pfFasL on CD32+ L-cells by pre-formed immune complexes (HLA-pfFasL (human)): 2.5 fold

Molecule: B1
- cell death of Jurkat cells (MTT assay), potency against IgFasL [2]: 125 fold less potent than IgFasL

Molecule: B2
- fold difference of Kd against cFasL [3]: 2 fold
- fold affinity against cFasL (Kd ratio) [4]: 2 fold
- cell death of Jurkat cells (MTT assay), potency against IgFasL [2]: 12.5 fold less potent than IgFasL

B3: soluble FasL (sFasL) (ligand)
chain: QKELAELRESTSQMHTASSLEKQIGHPSPPPEKKELRKVAHLTGKSNSRSMPLEWEDTYGIVLLSGVKYKKGGLVINETGLYFVYSKVYFRGQSCNNLPLSHKVYMRNSKYPQDLVMMEGKMMSYCTTGQMWARSSYLGAVFNLTSADHLYVNVSELSLVNFEESQTFFGLYKL
- cytotoxicity EC50 on the Jurkat cell line (MTT assay) [5]: > 3 µg/mL
- cytotoxicity on Jurkat cells, activity against pfFasL [2]: ≥ 5000 fold less active than pfFasL

B4: polymeric Flag-tagged soluble FasL (pfFasL) (ligand, not shown: small tags and cut ends)
chain: IPDSQTKVFPQDKVILVGSDITFCCVSQEKVLSALIGHTNCPLIHLDGENVAIKIRNISVSASSGTNVVFTTEDNIFGTVISRALQKELAELRESTSQMHTASSLEKQIGHPSPPPEKKELRKVAHLTGKSNSRSMPLEWEDTYGIVLLSGVKYKKGGLVINETGLYFVYSKVYFRGQSCNNLPLSHKVYMRNSKYPQDLVMMEGKMMSYCTTGQMWARSSYLGAVFNLTSADHLYVNVSELSLVNFEESQTFFGLYKL
- cytotoxicity EC50 on the Jurkat cell line (MTT assay) [5]: 0.6 ng/mL and 15.5 pM

- fold difference of Kd against cFasL [3]: 6 fold
- fold affinity against cFasL (Kd ratio) [4]: 6 fold
- Kd [6]: 11.6 nM
- koff [6]: 0.00041 s⁻¹
- kon [6]: 25000 M⁻¹ s⁻¹
B5: IgFasL (ligand)
chain: IPDSQTKVFPQDKVILVGSDITFCCVSQEKVLSALIGHTNCPLIHLDGENVAIKIRNISVSASSGTNVVFTTEDNIFGTVISRALQKELAELRESTSQMHTASSLEKQIGHPSPPPEKKELRKVAHLTGKSNSRSMPLEWEDTYGIVLLSGVKYKKGGLVINETGLYFVYSKVYFRGQSCNNLPLSHKVYMRNSKYPQDLVMMEGKMMSYCTTGQMWARSSYLGAVFNLTSADHLYVNVSELSLVNFEESQTFFGLYKL
notes: also called pFasL; polymeric FasL

Molecule: B6
- Kd (D1IgD2FasL): 25.6 nM
- koff (D1IgD2FasL): 0.0033 s⁻¹
- kon (D1IgD2FasL): 130000 M⁻¹ s⁻¹
- Kd (D2FasL): 38.5 nM
- koff (D2FasL): 0.006 s⁻¹
- kon (D2FasL): 160000 M⁻¹ s⁻¹
- Kd (cleaved FasL (cFasL)): 69.4 nM
- koff (cleaved FasL (cFasL)): 0.0059 s⁻¹
- kon (cleaved FasL (cFasL)): 84000 M⁻¹ s⁻¹
